Test results taken from patent EP4786492A1.

B1: Hab006VL4VH2-hFc (Fc fusion, part only; not given: Linker and human IgG1 Fc, not shown: a dimerising Fc or GST)
chain, part: DIVMTQSPDSLAVSLGERATINCRATKSISKYLAWYQQKPGQTNKLLIFSGSTLQSGVPDRFSGSGSGTDFTLTISSLQAEDVAVYYCQQHHEYPYTFGGGTKVEIKEVQLVQSGAEVKKPGASVKVSCKASGYTFTSYWMHWVRQAPGQRLEWMGVIDPSDSLANYNQEFKGRVTLTVDTSASTAYMELSSLRSEDTAVYYCARDSTVVAPMDYWGQGTTVTVSS
B2: mab006 scFv-hFc (Fc fusion, part only; not given: linker and human IgG1 Fc, not shown: a dimerising Fc or GST)
chain, part: DVQITQSPSYLAASPGETITINCRATKSISKYLAWYQEKPGKTNKLLIFSGSTLQSGIPSRFRGSGSGTDFTLTISSLEPEDFAMYYCQQHHEYPYTFGGGTKLEIKQVQLQQPGAELVRPGTSVKLSCKASGYTFTSYWMHWVRQRPGQGLEWIGVIDPSDSLANYNQEFKGKATLTVDTSSSTAYMQLSSLTSEDSAVYYCARDSTVVAPMDYWGQGTSVTVSS
B3: Hab009VL1aVH1-hFc (Fc fusion, part only; not given: Linker and human IgG1 Fc, not shown: a dimerising Fc or GST)
chain, part: DIVMTQSPLSLPVTPGEPASISCRASQTISDYLHWYLQKPGQSPQLLIKYASQSISGVPDRFSGSGSGSDFTLKISRVEAEDVGVYYCQQGHSFPLTFGQGTKLEIKEVQLVQSGAEVKKPGASVKVSCKASGYTFTSYWMHWVRQAPGQRLEWMGTIYPGNSDTRYNQKFKDRVTITADTSASTAYMELSSLRSEDTAVYYCTRSYDYGDLDYWGQGTTVTVSS
B4: Hab009VL2aVH1-hFc (Fc fusion, part only; not given: Linker and human IgG1 Fc, not shown: a dimerising Fc or GST)
chain, part: DIVMTQSPLSLPVTPGEPASISCRASQTISDYLHWYLQKPGQSPRLLIKYASQSISGVPDRFSGSGSGTDFTLKISRVEAEDVGVYYCQQGHSFPLTFGQGTKLEIKEVQLVQSGAEVKKPGASVKVSCKASGYTFTSYWMHWVRQAPGQRLEWMGTIYPGNSDTRYNQKFKDRVTITADTSASTAYMELSSLRSEDTAVYYCTRSYDYGDLDYWGQGTTVTVSS
B5: mab009 scFv-hFc (Fc fusion, part only; not given: Linker and human IgG1 Fc, not shown: a dimerising Fc or GST)
chain, part: DIVMTQSPATLSVTPGDRVSLSCRASQTISDYLHWYQQRSHESPRLLIKYASQSISGIPSRFSGSGSGSDFTLSINSVEPEDVGVYYCQNGHSFPLTFGAGTKLELKEVQLQQSGTVLARPGASVKMSCKTSGYTFTSYWMHWVKQSPGQGLEWIGTIYPGNSDTRYNQKFKDKAYVTAVTSASTAYMELSSLTNEESAVYYCTRSYDYGDLDYWGQGTTLTVSS
B6: mab014 scFv-hFc (Fc fusion, part only; not given: Linker and human IgG1 Fc, not shown: a dimerising Fc or GST)
chain, part: DIQMTQSSSSFSVSLGDRVTITCKASEDIYNRLAWYQQKPGNTPRLLISGATSLETGVPSRFSGSGSGKDFTLSITSLQTEDVATYYCQQYWSLPWTFGGGTKLEIKEVQLHQSGPELVKPGTSVKISCKASGYTFTDYYMNWVKQSHGKSLEWIGDINPNHGDTGYNQKFTGKATLTVDKSSSTAYMELRSLTSEDSAVYYCARNFFYYGTTYGWYFDVWGTGTTVTVSS
B7: mab015 scFv-hFc (Fc fusion, part only; not given: linker and human IgG1 Fc, not shown: a dimerising Fc or GST)
chain, part: NIVMTQSPKSMSMSVGERVTLSCKASENVGTYVSWFQQKPEQSPKLLIYGASNRYTGVPDRFTGSGSATDFTLTISSVQAEDLADYHCGQFYSFPCTFGGGTKLEIKEVKLEESGGGLVQPGGSMKLSCVASGITFSNFWMNWVRQSPEKGLEWVAQIRLKSDDYATHYAESVKGRFTISRDDSKGSVYLQMNNLRTEDTGIHYCTTGYYFDYWGQGTTLTVSS
B8: mab008 scFv-hFc (Fc fusion, part only; not given: linker and human IgG1 Fc, not shown: a dimerising Fc or GST)
chain, part: DIVMTQSQKFMSTSVGDRVSITCKASQNVGTAVAWYQQKPGQSPKLLIFSASIRYTGVPDRFTGSGSGTDFTLTISNMQSEDLADYFCQQYSSSPYTFGGGTKLEIKEVQLQQSGPVLVKPGASVKMSCKASGYTFTDYYMNWVKRSHGKSLEWIGIINPYNGGTSYNQKFRGKATLTVDKSSNTAYMELNSLTSEDSAVYYCSRYDYDYDVEGAMDYWGQGTSVTVSS
B9: mab013 scFv-hFc (Fc fusion, part only; not given: linker and human IgG1 Fc, not shown: a dimerising Fc or GST)
scFv, part: DIVLTQSPASLAVSLGQRATISCRASKSVSTSGFSYMHWYQQKPGQPPKLLIYLASNLESGVPARFSGSGSGTDFTLNIHPVEEEDAATYYCQHSRELPFTFGSGTKLEIKQVQLQQSGAELVKPGASVRISCKASGYAFSNYWINWVKQRPGKGLEWIGQINPGDGDTIYNGKFKGKATLTADKSSSTAYMQLSSLTSEDSAVYFCEREGRNYGDFAYWGQGTTLTVSS
B10: Hab015VL4VH6b-hFc (Fc fusion, part only; not given: VL-VH linker and human IgG1 Fc, not shown: another chain or arm of the molecule; a dimerising Fc or GST; small tags and cut ends)
VL: NIVLTQSPATLSLSPGERATLSCKASENVGTYVSWFQQKPGQSPRLLIYGASNRYTGIPARFSGSGSGTDFTLTISSLEPEDFAVYYCGQFYSFPSTFGGGTKVEIK
VH: EVQLVESGGGLVKPGGSLRLSCAASGITFSNFWMNWVRQAPEKGLEWVGQIRLKSDQYATHYAESVKGRFTISREDSKNTVYLQMNSLKTEDTAVYYCTTGYYFDYWGQGTTVTVSS

Key:
[1] = molecular target: DLL3 endogenously expressed on NCI-H82 cells (UniProt Q9NYJ7); assay: FACS on NCI-H82 cells; antibody 4 nM
Chain of DLL3 endogenously expressed on NCI-H82 cells (Q9NYJ7 27-618): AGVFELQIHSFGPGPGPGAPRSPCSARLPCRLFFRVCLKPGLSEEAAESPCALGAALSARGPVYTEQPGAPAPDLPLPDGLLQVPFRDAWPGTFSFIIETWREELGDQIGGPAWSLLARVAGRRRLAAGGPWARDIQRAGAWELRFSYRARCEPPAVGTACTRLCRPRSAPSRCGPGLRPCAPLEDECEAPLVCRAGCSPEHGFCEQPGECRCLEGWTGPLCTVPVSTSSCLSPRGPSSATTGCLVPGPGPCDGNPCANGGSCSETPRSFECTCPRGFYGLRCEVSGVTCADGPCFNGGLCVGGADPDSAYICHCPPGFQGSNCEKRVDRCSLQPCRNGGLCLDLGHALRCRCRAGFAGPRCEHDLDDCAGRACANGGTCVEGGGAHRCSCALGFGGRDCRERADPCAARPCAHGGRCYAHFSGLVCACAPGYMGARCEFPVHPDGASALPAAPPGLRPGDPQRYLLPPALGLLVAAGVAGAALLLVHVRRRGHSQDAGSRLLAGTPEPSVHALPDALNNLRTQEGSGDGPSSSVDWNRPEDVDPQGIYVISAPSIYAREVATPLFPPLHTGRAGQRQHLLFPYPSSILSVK

[2] = molecular target: DLL3 endogenously expressed on NCI-H82 cells (UniProt Q9NYJ7); assay: FACS on NCI-H82 cells; antibody 20 nM
[3] = molecular target: DLL3 endogenously expressed on NCI-H82 cells (UniProt Q9NYJ7); assay: FACS on NCI-H82 cells; antibody 0.8 nM
[4] = molecular target: DLL3 endogenously expressed on NCI-H82 cells (UniProt Q9NYJ7); assay: FACS on NCI-H82 cells; antibody 100 nM
[5] = molecular target: DLL3 endogenously expressed on NCI-H82 cells (UniProt Q9NYJ7); assay: FACS on NCI-H82 cells; antibody 0.16 nM
[6] = molecular target: DLL3 endogenously expressed on NCI-H82 cells (UniProt Q9NYJ7); assay: FACS on NCI-H82 cells; antibody 0.032 nM
[7] = molecular target: DLL3 endogenously expressed on NCI-H82 cells (UniProt Q9NYJ7); assay: FACS on NCI-H82 cells; antibody 0.0064 nM
[8] = molecular target: DLL3 endogenously expressed on NCI-H82 cells (UniProt Q9NYJ7); assay: FACS on NCI-H82 cells; antibody 0.00128 nM
[9] = molecular target: human DLL3 protein (extracellular segment, His tag) (human) (UniProt Q9NYJ7); assay: SPR (Biacore 8K), antibody captured on Protein A chip, DLL3 antigen in solution, 1:1 Langmuir fit
Chain of human DLL3 protein (extracellular segment, His tag) (human) (Q9NYJ7 27-492): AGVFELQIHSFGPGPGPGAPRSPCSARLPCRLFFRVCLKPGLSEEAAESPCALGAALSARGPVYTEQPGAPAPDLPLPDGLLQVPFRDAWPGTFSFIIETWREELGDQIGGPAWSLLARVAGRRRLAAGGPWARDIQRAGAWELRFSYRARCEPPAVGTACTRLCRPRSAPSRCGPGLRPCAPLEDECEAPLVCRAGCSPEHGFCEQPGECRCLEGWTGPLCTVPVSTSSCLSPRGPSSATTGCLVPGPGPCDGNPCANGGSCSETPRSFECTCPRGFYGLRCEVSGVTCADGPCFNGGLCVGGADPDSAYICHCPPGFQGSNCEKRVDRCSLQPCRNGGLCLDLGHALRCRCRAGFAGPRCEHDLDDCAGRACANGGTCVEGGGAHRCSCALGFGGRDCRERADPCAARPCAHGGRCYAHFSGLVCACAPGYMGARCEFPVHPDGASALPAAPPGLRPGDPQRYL

Binder | MFI [1] | MFI [2] | MFI [3] | MFI [4] | MFI [5] | MFI [6] | MFI [7] | MFI [8] | Kd [9] | koff [9] | kon [9]
B1 | 445 | 494 | 429 | 588 | 385 | 250 | 151 | 117 | – | – | –
B2 | 457 | 488 | 422 | 586 | 416 | 292 | 177 | 123 | 1.25 nM | 0.000203 s⁻¹ | 162000 M⁻¹ s⁻¹
B3 | 759 | 815 | 722 | 888 | 673 | 379 | 180 | 122 | – | – | –
B4 | 747 | 789 | 709 | 870 | 671 | 377 | 185 | 124 | – | – | –
B5 | 737 | 833 | 674 | 968 | 673 | 346 | 175 | 123 | 0.216 nM | 0.00132 s⁻¹ | 6.13e+06 M⁻¹ s⁻¹
B6 | 702 | 829 | 667 | 1190 | 429 | 213 | 134 | 112 | 0.0547 nM | 4.64e-05 s⁻¹ | 848000 M⁻¹ s⁻¹
B7 | 1190 | 1360 | 1120 | 1680 | 588 | 218 | 135 | 113 | 0.000597 nM | 1.46e-06 s⁻¹ | 2.45e+06 M⁻¹ s⁻¹
B8 | 373 | 438 | 176 | 537 | 107 | 95 | 94 | 113 | 0.381 nM | 0.00034 s⁻¹ | 891000 M⁻¹ s⁻¹
B9 | – | – | – | – | – | – | – | – | 0.264 nM | 0.00082 s⁻¹ | 3.11e+06 M⁻¹ s⁻¹
B10 | – | – | – | – | – | – | – | – | 0.0131 nM | 2.5e-05 s⁻¹ | 1.91e+06 M⁻¹ s⁻¹
